Four sequences from the supplement of paper PMC5998384 can be followed below.

Data set [1] relates to HeLa Kyoto. The data set can be described thus: solubility change mitosis vs G1/S (difference of NP-40 vs SDS log2 ratios) (log2 ratio difference); higher = more soluble in mitosis.
For data set [2], the system named is HeLa Kyoto. Put plainly: melting temperature (median over replicates), in situ; higher = more thermally stable.
Data set [3] has as its system HeLa Kyoto. Put plainly: solubility in G1/S (NP-40 vs SDS abundance) (log2 ratio); higher = more soluble. The conditions noted are these: cell cycle stage: G1/S.
Data set [4] concerns HeLa Kyoto. The data set can be described thus: thermal stability score vs G1/S (z-score of summed log2 fold changes over temperatures); higher = more thermally stable than in G1/S.
[5] abbreviates: cell cycle stage: early G1 (4.5 h after nocodazole release).
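Wherever melting temperature (median over replicates), in situ is given: HeLa Kyoto cells synchronized by double thymidine or nocodazole block, proteins quantified by TMT10plex mass spectrometry, three independent biological replicates.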
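Wherever solubility change mitosis vs G1/S (difference of NP-40 vs SDS log2 ratios) is given: synchronized HeLa Kyoto cells (double thymidine block for G1/S, nocodazole release for mitosis), protein amounts in NP-40 versus SDS lysates quantified by mass spectrometry, three biological replicates.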
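Wherever solubility in G1/S (NP-40 vs SDS abundance) is given: HeLa Kyoto cells arrested at G1/S by double thymidine block, proteins quantified by TMT10plex mass spectrometry in mild NP-40 versus SDS extracts, three biological replicates.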
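Wherever thermal stability score vs G1/S (z-score of summed log2 fold changes over temperatures) is given: synchronized HeLa Kyoto cells, proteins quantified by TMT10plex mass spectrometry, three biological replicates, mitosis taken 0.5 h after nocodazole release, G1/S directly after double thymidine block.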

As for “MSSTQFNKGPSYGLSAEVKNRLLSKYDPQKEAELRTWIEGLTGLSIGPDFQKGLKDGTILCTLMNKLQPGSVPKINRSMQNWHQLENLSNFIKAMVSYGMNPVDLFEANDLFESGNMTQVQVSLLALAGKAKTKGLQSGVDIGVKYSEKQERNFDDATMKAGQCVIGLQMGTNKCASQSGMTAYGTRRHLYDPKNHILPPMDHSTISLQMGTNKCASQVGMTAPGTRRHIYDTKLGTDKCDNSSMSLQMGYTQGANQSGQVFGLGRQIYDPKYCPQGTVADGAPSGTGDCPDPGEVPEYPPYYQEEAGY [CNN2]”, the “solubility change mitosis (log2)” value in data set [1] was -0.0021. Also, the melting temperature was determined as 48.8 °C in data set [2] (cell cycle stage: G1/S) and 50.3 °C in data set [2] (cell cycle stage: mitosis). Further, the “solubility in G1/S (log2)” value in data set [3] was 0.456. Further, the thermal stability score was determined as 1.28 in data set [4] (setting [5]) and 1.97 in data set [4] (cell cycle stage: mitosis).
“MSTADALDDENTFKILVATDIHLGFMEKDAVRGNDTFVTLDEILRLAQENEVDFILLGGDLFHENKPSRKTLHTCLELLRKYCMGDRPVQFEILSDQSVNFGFSKFPWVNYQDGNLNISIPVFSIHGNHDDPTGADALCALDILSCAGFVNHFGRSMSVEKIDISPVLLQKGSTKIALYGLGSIPDERLYRMFVNKKVTMLRPKEDENSWFNLFVIHQNRSKHGSTNFIPEQFLDDFIDLVIWGHEHECKIAPTKNEQQLFYISQPGSSVVTSLSPGEAVKKHVGLLRIKGRKMNMHKIPLHTVRQFFMEDIVLANHPDIFNPDNPKVTQAIQSFCLEKIEEMLENAERERLGNSHQPEKPLVRLRVDYSGGFEPFSVLRFSQKFVDRVANPKDIIHFFRHREQKEKTGEEINFGKLITKPSEGTTLRVEDLVKQYFQTAEKNVQLSLLTERGMGEAVQEFVDKEEKDAIEELVKYQLEKTQRFLKERHIDALEDKIDEEVRRFRETRQKNTNEEDDEVREAMTRARALRSQSEESASAFSADDLMSIDLAEQMANDSDDSISAATNKGRGRGRGRRGGRGQNSASRGGSQRGRADTGLETSTRSRNSKTAVSASRNMSIIDAFKSTRQQPSRNVTTKNYSEVIEVDESDVEEDIFPTTSKTDQRWSSTSSSKIMSQSQVSKGVDFESSEDDDDDPFMNTSSLRRNRR [MRE11A]”: in data set [1], the “solubility change mitosis (log2)” value was -0.164. Besides, the results for the melting temperature in data set [2] (cell cycle stage: G1/S) and in data set [2] (cell cycle stage: mitosis) were 51.6 °C and 51.2 °C, respectively. Besides, the “solubility in G1/S (log2)” value in data set [3] was -0.0431. In addition, the thermal stability score in data set [4] (setting [5]) is -0.294; in data set [4] (cell cycle stage: mitosis), -0.527.
For the sequence “MSTARTENPVIMGLSSQNGQLRGPVKPTGGPGGGGTQTQQQMNQLKNTNTINNGTQQQAQSMTTTIKPGDDWKKTLKLPPKDLRIKTSDVTSTKGNEFEDYCLKRELLMGIFEMGWEKPSPIQEESIPIALSGRDILARAKNGTGKSGAYLIPLLERLDLKKDNIQAMVIVPTRELALQVSQICIQVSKHMGGAKVMATTGGTNLRDDIMRLDDTVHVVIATPGRILDLIKKGVAKVDHVQMIVLDEADKLLSQDFVQIMEDIILTLPKNRQILLYSATFPLSVQKFMNSHLQKPYEINLMEELTLKGVTQYYAYVTERQKVHCLNTLFSRLQINQSIIFCNSSQRVELLAKKISQLGYSCFYIHAKMRQEHRNRVFHDFRNGLCRNLVCTDLFTRGIDIQAVNVVINFDFPKLAETYLHRIGRSGRFGHLGLAINLITYDDRFNLKSIEEQLGTEIKPIPSNIDKSLYVAEYHSEPVEDEKP [DDX6]”, the “solubility change mitosis (log2)” value in data set [1] was 0.0947. In addition, the melting temperature in data set [2] (cell cycle stage: G1/S) amounted to 51.5 °C; in data set [2] (cell cycle stage: mitosis) it was 51 °C. Moreover, the “solubility in G1/S (log2)” value in data set [3] was -0.136. Further, the thermal stability score was 0.486 in data set [4] (setting [5]) and -0.288 in data set [4] (cell cycle stage: mitosis).
Turning to “MSTGTFVVSQPLNYRGGARVEPADASGTEKAFEPATGRVIATFTCSGEKEVNLAVQNAKAAFKIWSQKSGMERCRILLEAARIIREREDEIATMECINNGKSIFEARLDIDISWQCLEYYAGLAASMAGEHIQLPGGSFGYTRREPLGVCVGIGAWNYPFQIASWKSAPALACGNAMVFKPSPFTPVSALLLAEIYSEAGVPPGLFNVVQGGAATGQFLCQHPDVAKVSFTGSVPTGMKIMEMSAKGIKPVTLELGGKSPLIIFSDCDMNNAVKGALMANFLTQGQVCCNGTRVFVQKEILDKFTEEVVKQTQRIKIGDPLLEDTRMGPLINRPHLERVLGFVKVAKEQGAKVLCGGDIYVPEDPKLKDGYYMRPCVLTNCRDDMTCVKEEIFGPVMSILSFDTEAEVLERANDTTFGLAAGVFTRDIQRAHRVVAELQAGTCFINNYNVSPVELPFGGYKKSGFGRENGRVTIEYYSQLKTVCVEMGDVESAF [ALDH9A1]”, in data set [1], the “solubility change mitosis (log2)” value was -0.0784. In addition, the melting temperature in data set [2] (cell cycle stage: G1/S) turned out to be 57.1 °C; in data set [2] (cell cycle stage: mitosis) it was 57.3 °C. Further, the “solubility in G1/S (log2)” value in data set [3] amounted to 0.24. In addition, the figures for the thermal stability score in data set [4] (setting [5]) and in data set [4] (cell cycle stage: mitosis) were 0.248 and -0.642, respectively.
